Source: PMC10349818

Experiments:
[1] = molecular target: NavAb N49K/L176Q mutant (Arcobacter butzleri) (UniProt A8EVM5); assay: crystal structure; protein in DMPC:CHAPSO bicelles, sitting-drop vapour diffusion at 20 °C; cryoprotectant with 2.5 M sodium chloride, with or without 100 mM calcium nitrate; homotetramer around the four-fold axis
[2] = molecular target: NavAb N49K/L176G mutant (Arcobacter butzleri) (UniProt A8EVM5); assay: as above

| Substance | stoichiometry N [1] | stoichiometry N [2] |
| --- | --- | --- |
| NavAb N49K/L176Q mutant (from UniProt A8EVM5 1-267) (natural protein) | 4 | – |
| NavAb N49K/L176G mutant (from UniProt A8EVM5 1-267) (natural protein) | – | 4 |
